± gives the standard deviation of the averaged measurements.
tested on: ATP; assay: switch fluorescence ratio, 500 uM ATP over buffer (Cy3 cluster intensity, sum of 5 cycles each) (fold (ratio)); higher = stronger signal-on switching upon ATP binding; sequences stand for … in TCGTCGGCAGCGTCAGATGTGTATAAGAGACAGTTTTTTTTTTTTTTTTTTTTTTTTT…TC; conditions: aptamer strand: ATP DNA aptamer (quencher-CACCTGGGGGAGTATTGCGGAGGAAGG + anchor), 100 nM annealed; ATP concentration: 500 uM
Method in brief: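 Clusters with intensities outside 100-1000 RFU were excluded. The remaining Cy3-labelled switching-strand clusters on a modified Illumina MiSeq flow-cell had been annealed to 100 nM quencher-labelled ATP aptamer and imaged in selection buffer, then after 15 min with 500 uM ATP at 22 °C, for five cycles separated by NaOH stripping and re-annealing. The fluorescence ratio, averaged per switch-domain sequence, is each cluster's summed target-cycle Cy3 intensity over its summed buffer-cycle Cy3 intensity.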
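Also: ATP exposure 15 min at 22 °C before imaging.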

| Sequence | switch fluorescence ratio |
| --- | --- |
| AAGGGATTGT | 1.18 ± 0.26 |
| AAGGGCAGAA | 0.973 ± 0.03 |
| AAGGGCAGTA | 0.998 ± 0.01 |
| AAGGGCGGAT | 1.02 ± 0.021 |
| AAGGGCGGGA | 1.02 ± 0.086 |
| AAGGGCTAGG | 0.999 ± 0.014 |
| AAGGGCTCTG | 1.01 ± 0.046 |
| AAGGGCTGGT | 0.99 ± 0.022 |
| AAGGGGAAAA | 0.983 ± 0.02 |
| AAGGGGAAGG | 0.996 ± 0.012 |
| AAGGGGAATA | 1.01 ± 0.035 |
| AAGGGGAGGA | 0.989 ± 0.016 |
| AAGGGGAGGC | 0.971 ± 0.041 |
| AAGGGGATAT | 1.03 ± 0.044 |
| AAGGGGATTG | 0.986 ± 0.042 |
| AAGGGGCAGC | 0.9903 ± 0.0069 |
| AAGGGGCCCC | 1.31 ± 0.49 |
| AAGGGGCCGG | 1.0099 ± 8.3e-05 |
| AAGGGGCGCA | 0.969 ± 0.045 |
| AAGGGGGATC | 1 ± 0.032 |
| AAGGGGGCCC | 0.99 ± 0.021 |
| AAGGGGGCGA | 0.982 ± 0.019 |
| AAGGGGGGAT | 0.974 ± 0.02 |
| AAGGGGGGCC | 1.01 ± 0.089 |
| AAGGGGGGTT | 1.01 ± 0.036 |

| Sequence | switch fluorescence ratio |
| --- | --- |
| AAGGGGGTAC | 1.38 ± 0.77 |
| AAGGGGGTAG | 1.01 ± 0.032 |
| AAGGGGGTTG | 0.975 ± 0.044 |
| AAGGGGTAAT | 0.967 ± 0.045 |
| AAGGGGTCCA | 0.991 ± 0.029 |
| AAGGGGTCTA | 1.002 ± 0.0085 |
| AAGGGGTGGT | 0.989 ± 0.032 |
| AAGGGGTGTA | 0.985 ± 0.04 |
| AAGGGTATCC | 1.02 ± 0.013 |
| AAGGGTCGCG | 1.02 ± 0.055 |
| AAGGGTGTGT | 0.961 ± 0.032 |
| AAGGGTGTTT | 1.01 ± 0.034 |
| AAGGGTTACG | 1 ± 0.025 |
| AAGGGTTGGG | 1.06 ± 0.058 |
| AAGGTAAGGG | 1.01 ± 0.041 |
| AAGGTACGAA | 1.04 ± 0.011 |
| AAGGTATCAT | 0.978 ± 0.018 |
| AAGGTATCGG | 0.987 ± 0.037 |
| AAGGTATGCT | 0.982 ± 0.019 |
| AAGGTATTAA | 1 ± 0.036 |
| AAGGTATTGC | 0.9947 ± 0.0061 |
| AAGGTCGGTA | 1.001 ± 0.0024 |
| AAGGTCGTCG | 0.9834 ± 0.0076 |
| AAGGTGAATC | 1.04 ± 0.019 |
| AAGGTGGCCC | 1.03 ± 0.023 |

| Sequence | switch fluorescence ratio |
| --- | --- |
| AAGGTGTGCC | 1.01 ± 0.03 |
| AAGGTTAGTT | 1.003 ± 0.0083 |
| AAGGTTATGT | 0.991 ± 0.02 |
| AAGGTTATTA | 1 ± 0.023 |
| AAGGTTGCGA | 0.9571 ± 0.0024 |
| AAGGTTGGGG | 0.994 ± 0.017 |
| AAGGTTTAAG | 0.999 ± 0.011 |
| AAGGTTTCAG | 0.9758 ± 0.0079 |
| AAGGTTTTTC | 1.01 ± 0.015 |
| AAGTAAGTGG | 1.03 ± 0.042 |
| AAGTAATAGG | 1.03 ± 0.019 |
| AAGTAATTTC | 1.02 ± 0.013 |
| AAGTACGGAG | 1.04 ± 0.052 |
| AAGTACGTTG | 1.12 ± 0.057 |
| AAGTAGGAGC | 1.06 ± 0.19 |
| AAGTAGGCTC | 0.991 ± 0.007 |
| AAGTAGGGGG | 0.951 ± 0.016 |
| AAGTAGTAGT | 1.007 ± 0.0043 |
| AAGTAGTCGA | 0.9838 ± 0.0041 |
| AAGTAGTTAC | 1.05 ± 0.042 |
| AAGTATAGCA | 1.03 ± 0.014 |
| AAGTATAGTT | 1.04 ± 0.056 |
| AAGTATCCGT | 0.986 ± 0.048 |
| AAGTATGTAT | 1.02 ± 0.041 |
| AAGTATTATC | 1.01 ± 0.019 |

| Sequence | switch fluorescence ratio |
| --- | --- |
| AAGTCAATGT | 1.015 ± 0.0027 |
| AAGTCACATC | 1.22 ± 0.19 |
| AAGTCAGGAG | 1.05 ± 0.07 |
| AAGTCCCGCT | 1.12 ± 0.17 |
| AAGTCGGCTG | 0.9757 ± 0.002 |
| AAGTCGGTTA | 1 ± 0.02 |
| AAGTCTTGTT | 0.97636 ± 0.00051 |
| AAGTCTTTTC | 0.975 ± 0.036 |
| AAGTGAAAGC | 1.01 ± 0.068 |
| AAGTGAAGCT | 1 ± 0.015 |
| AAGTGAGTAG | 1.004 ± 0.01 |
| AAGTGATTGG | 0.973 ± 0.011 |
| AAGTGCAAAC | 1.53 ± 0.73 |
| AAGTGCCCCA | 1.05 ± 0.016 |
| AAGTGCGGCC | 0.987 ± 0.011 |
| AAGTGGGCCT | 0.981 ± 0.038 |
| AAGTGGGGCG | 1.02 ± 0.034 |
| AAGTGGGGGG | 1 ± 0.024 |
| AAGTGTATCA | 0.983 ± 0.02 |
| AAGTGTGCGA | 0.997 ± 0.028 |
| AAGTGTTTTA | 1.001 ± 0.0045 |
| AAGTTAAAAT | 1.012 ± 0.0074 |
| AAGTTAACTT | 0.9883 ± 0.0087 |
| AAGTTAATGT | 1 ± 0.022 |
| AAGTTAGGGG | 0.9756 ± 0.0084 |

| Sequence | switch fluorescence ratio |
| --- | --- |
| AAGTTCAGTT | 1.01 ± 0.016 |
| AAGTTCGAGA | 1.002 ± 0.0016 |
| AAGTTCGGGG | 1.05 ± 0.088 |
| AAGTTCGTGC | 1.02 ± 0.058 |
| AAGTTGAATT | 0.99 ± 0.029 |
| AAGTTGAGGG | 0.975 ± 0.035 |
| AAGTTGCGCT | 1 ± 0.034 |
| AAGTTGCGGG | 0.964 ± 0.078 |
| AAGTTGCGTT | 1.01 ± 0.015 |
| AAGTTGCTGG | 0.985 ± 0.019 |
| AAGTTGGATG | 0.977 ± 0.019 |
| AAGTTGGGGA | 0.996 ± 0.021 |
| AAGTTGTCCG | 0.964 ± 0.0091 |
| AAGTTGTCTT | 0.999 ± 0.027 |
| AAGTTGTGAA | 1.01 ± 0.017 |
| AAGTTGTGTA | 0.993 ± 0.031 |
| AAGTTTAATA | 0.943 ± 0.034 |
| AAGTTTACAT | 1.01 ± 0.026 |
| AAGTTTATGG | 0.9798 ± 0.0057 |
| AAGTTTCGCG | 0.976 ± 0.027 |
| AAGTTTGACC | 0.978 ± 0.032 |
| AAGTTTGTCA | 0.955 ± 0.017 |
| AAGTTTGTGG | 0.973 ± 0.047 |
| AAGTTTTCCG | 0.964 ± 0.062 |
| AAGTTTTGGC | 1 ± 0.035 |

| Sequence | switch fluorescence ratio |
| --- | --- |
| AAGTTTTGGG | 0.974 ± 0.02 |
| AAGTTTTTGG | 1.01 ± 0.03 |
| AATAAAATTT | 1.04 ± 0.022 |
| AATAAACAAA | 0.978 ± 0.013 |
| AATAAAGGGT | 1.02 ± 0.027 |
| AATAAGATGT | 0.999 ± 0.066 |
| AATAAGCTGG | 0.984 ± 0.033 |
| AATAAGGT | 1.003 ± 0.0056 |
| AATAATAAAC | 1.006 ± 0.0047 |
| AATAATCTTT | 1.02 ± 0.013 |
| AATAATGGAA | 0.987 ± 0.015 |
| AATAATGGTT | 1.01 ± 0.013 |
| AATAATGTTC | 0.9805 ± 0.0071 |
| AATAATTAAA | 0.9861 ± 0.0097 |
| AATACCCGGG | 1.021 ± 0.0045 |
| AATACGGTCT | 1 ± 0.06 |
| AATACTACAG | 1.08 ± 0.024 |
| AATACTCACG | 1.5 ± 0.058 |
| AATACTGTGC | 0.947 ± 0.064 |
| AATAGAATAC | 1.163 ± 0.0021 |
| AATAGAGGAG | 1.012 ± 0.007 |
| AATAGATAGT | 0.9929 ± 0.0055 |
| AATAGATTGC | 1.003 ± 0.0092 |
| AATAGGGGAA | 1.01 ± 0.042 |
| AATAGGGGAC | 1.01 ± 0.016 |

| Sequence | switch fluorescence ratio |
| --- | --- |
| AATAGGGGTT | 0.984 ± 0.03 |
| AATAGTAAAT | 0.999 ± 0.012 |
| AATAGTAGCG | 1.01 ± 0.054 |
| AATAGTATCT | 1.01 ± 0.029 |
| AATAGTGACG | 1.14 ± 0.28 |
| AATAGTTTG | 1.01 ± 0.017 |
| AATAGTTTTT | 0.986 ± 0.055 |
| AATATAAATA | 1.019 ± 0.0072 |
| AATATAGGGG | 0.996 ± 0.017 |
| AATATATGGA | 1 ± 0.023 |
| AATATATGGG | 0.973 ± 0.021 |
| AATATCACGG | 1.05 ± 0.029 |
| AATATCTGTG | 1.01 ± 0.016 |
| AATATGATAA | 1.01 ± 0.053 |
| AATATGATGT | 1.05 ± 0.04 |
| AATATGGGGT | 1.01 ± 0.014 |
| AATATGTATG | 0.996 ± 0.024 |
| AATATGTGAG | 0.995 ± 0.028 |
| AATATGTTGT | 0.98 ± 0.037 |
| AATATTAGCC | 0.957 ± 0.02 |
| AATATTATGG | 1 ± 0.016 |
| AATATTGGGG | 0.981 ± 0.029 |
| AATATTGGTG | 1.0416 ± 0.001 |
| AATATTGTCG | 0.994 ± 0.034 |
| AATATTGTCT | 0.96 ± 0.013 |

| Sequence | switch fluorescence ratio |
| --- | --- |
| AATATTTGGT | 0.974 ± 0.019 |
| AATCAAGGCG | 1.03 ± 0.1 |
| AATCAATTGT | 0.978 ± 0.053 |
| AATCAGAGTG | 1.01 ± 0.03 |
| AATCAGCGTC | 0.986 ± 0.023 |
| AATCAGGGGG | 1.01 ± 0.04 |
| AATCAGTGGA | 0.974 ± 0.038 |
| AATCATCGTG | 0.9646 ± 0.0043 |
| AATCATGGAG | 0.9891 ± 0.004 |
| AATCATGGT | 0.978 ± 0.019 |
| AATCATTATT | 1.01 ± 0.017 |
| AATCATTGTT | 1.02 ± 0.026 |
| AATCCAGGGC | 1.05 ± 0.056 |
| AATCCTGGAG | 1.02 ± 0.011 |
| AATCGAGGGG | 0.991 ± 0.03 |
| AATCGAGTTG | 0.985 ± 0.013 |
| AATCGATTCC | 1.04 ± 0.034 |
| AATCGCGGCT | 1.01 ± 0.029 |
| AATCGCGTTT | 1.017 ± 0.0012 |
| AATCGGGAGG | 0.963 ± 0.062 |
| AATCGGGCAG | 1.04 ± 0.021 |
| AATCGGGGCT | 0.992 ± 0.013 |
| AATCGGGGTT | 0.948 ± 0.015 |
| AATCGGGTCT | 0.999 ± 0.015 |
| AATCGTCTTT | 0.961 ± 0.024 |

— the supplement of paper PMC10126150
